From the supplement of paper PMC5998384 come the findings set out here.

Data set [1] concerns HeLa Kyoto. The experiment in a line: thermal stability score vs G1/S (z-score of summed log2 fold changes over temperatures); higher = more thermally stable than in G1/S.
Data set [2] concerns HeLa Kyoto. The experiment in a line: solubility in G1/S (NP-40 vs SDS abundance) (log2 ratio); higher = more soluble. The following applies: cell cycle stage: G1/S.
Data set [3] relates to HeLa Kyoto. The experiment in a line: solubility change mitosis vs G1/S (difference of NP-40 vs SDS log2 ratios) (log2 ratio difference); higher = more soluble in mitosis.
Data set [4] deals with HeLa Kyoto. The experiment in a line: melting temperature (median over replicates), in situ; higher = more thermally stable.
[5] abbreviates: cell cycle stage: early G1 (4.5 h after nocodazole release).
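Wherever melting temperature (median over replicates), in situ is given: HeLa Kyoto cells synchronized by double thymidine or nocodazole block, proteins quantified by TMT10plex mass spectrometry, three independent biological replicates.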
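Wherever solubility change mitosis vs G1/S (difference of NP-40 vs SDS log2 ratios) is given: synchronized HeLa Kyoto cells (double thymidine block for G1/S, nocodazole release for mitosis), protein amounts in NP-40 versus SDS lysates quantified by mass spectrometry, three biological replicates.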
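Wherever solubility in G1/S (NP-40 vs SDS abundance) is given: HeLa Kyoto cells arrested at G1/S by double thymidine block, proteins quantified by TMT10plex mass spectrometry in mild NP-40 versus SDS extracts, three biological replicates.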
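Wherever thermal stability score vs G1/S (z-score of summed log2 fold changes over temperatures) is given: synchronized HeLa Kyoto cells, proteins quantified by TMT10plex mass spectrometry, three biological replicates, mitosis taken 0.5 h after nocodazole release, G1/S directly after double thymidine block.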

Take “MAARRITQETFDAVLQEKAKRYHMDASGEAVSETLQFKAQDLLRAVPRSRAEMYDDVHSDGRYSLSGSVAHSRDAGREGLRSDVFPGPSFRSSNPSISDDSYFRKECGRDLEFSHSDSRDQVIGHRKLGHFRSQDWKFALRGSWEQDFGHPVSQESSWSQEYSFGPSAVLGDFGSSRLIEKECLEKESRDYDVDHPGEADSVLRGGSQVQARGRALNIVDQEGSLLGKGETQGLLTAKGGVGKLVTLRNVSTKKIPTVNRITPKTQGTNQIQKNTPSPDVTLGTNPGTEDIQFPIQKIPLGLDLKNLRLPRRKMSFDIIDKSDVFSRFGIEIIKWAGFHTIKDDIKFSQLFQTLFELETETCAKMLASFKCSLKPEHRDFCFFTIKFLKHSALKTPRVDNEFLNMLLDKGAVKTKNCFFEIIKPFDKYIMRLQDRLLKSVTPLLMACNAYELSVKMKTLSNPLDLALALETTNSLCRKSLALLGQTFSLASSFRQEKILEAVGLQDIAPSPAAFPNFEDSTLFGREYIDHLKAWLVSSGCPLQVKKAEPEPMREEEKMIPPTKPEIQAKAPSSLSDAVPQRADHRVVGTIDQLVKRVIEGSLSPKERTLLKEDPAYWFLSDENSLEYKYYKLKLAEMQRMSENLRGADQKPTSADCAVRAMLYSRAVRNLKKKLLPWQRRGLLRAQGLRGWKARRATTGTQTLLSSGTRLKHHGRQAPGLSQAKPSLPDRNDAAKDCPPDPVGPSPQDPSLEASGPSPKPAGVDISEAPQTSSPCPSADIDMKTMETAEKLARFVAQVGPEIEQFSIENSTDNPDLWFLHDQNSSAFKFYRKKVFELCPSICFTSSPHNLHTGGGDTTGSQESPVDLMEGEAEFEDEPPPREAELESPEVMPEEEDEDDEDGGEEAPAPGGAGKSEGSTPADGLPGEAAEDDLAGAPALSQASSGTCFPRKRISSKSLKVGMIPAPKRVCLIQEPKVHEPVRIAYDRPRGRPMSKKKKPKDLDFAQQKLTDKNLGFQMLQKMGWKEGHGLGSLGKGIREPVSVGTPSEGEGLGADGQEHKEDTFDVFRQRMMQMYRHKRANK [SUGP2]”: the thermal stability score came to 1.78 in the data set with HeLa Kyoto [1] (setting [5]) and 2.89 in the data set with HeLa Kyoto [1] (cell cycle stage: mitosis). The “solubility in G1/S (log2)” value with HeLa Kyoto [2] was -0.497. Further, the “solubility change mitosis (log2)” value in the data set with HeLa Kyoto [3] is 0.277. Besides, the melting temperature is 46 °C in the data set on HeLa Kyoto [4] (cell cycle stage: G1/S) and 48.8 °C in the data set with HeLa Kyoto [4] (cell cycle stage: mitosis).
With “MASVSALTEELDSITSELHAVEIQIQELTERQQELIQKKKVLTKKIKQCLEDSDAGASNEYDSSPAAWNKEDFPWSGKVKDILQNVFKLEKFRPLQLETINVTMAGKEVFLVMPTGGGKSLCYQLPALCSDGFTLVICPLISLMEDQLMVLKQLGISATMLNASSSKEHVKWVHAEMVNKNSELKLIYVTPEKIAKSKMFMSRLEKAYEARRFTRIAVDEVHCCSQWGHDFRPDYKALGILKRQFPNASLIGLTATATNHVLTDAQKILCIEKCFTFTASFNRPNLYYEVRQKPSNTEDFIEDIVKLINGRYKGQSGIIYCFSQKDSEQVTVSLQNLGIHAGAYHANLEPEDKTTVHRKWSANEIQVVVATVAFGMGIDKPDVRFVIHHSMSKSMENYYQESGRAGRDDMKADCILYYGFGDIFRISSMVVMENVGQQKLYEMVSYCQNISKCRRVLMAQHFDEVWNSEACNKMCDNCCKDSAFERKNITEYCRDLIKILKQAEELNEKLTPLKLIDSWMGKGAAKLRVAGVVAPTLPREDLEKIIAHFLIQQYLKEDYSFTAYATISYLKIGPKANLLNNEAHAITMQVTKSTQNSFRAESSQTCHSEQGDKKMEEKNSGNFQKKAANMLQQSGSKNTGAKKRKIDDA [RECQL]”, the figures for the thermal stability score with HeLa Kyoto [1] (setting [5]) and in the data set on HeLa Kyoto [1] (cell cycle stage: mitosis) were -1.7 and -4.39, respectively. For the same substance, in the data set on HeLa Kyoto [2], the “solubility in G1/S (log2)” value turned out to be 0.0561. In addition, the “solubility change mitosis (log2)” value in the data set with HeLa Kyoto [3] is -0.174. Besides, the results for the melting temperature with HeLa Kyoto [4] (cell cycle stage: G1/S) and with HeLa Kyoto [4] (cell cycle stage: mitosis) were 54 °C and 53.4 °C, respectively.
Take “MPAHLLQDDISSSYTTTTTITAPPSRVLQNGGDKLETMPLYLEDDIRPDIKDDIYDPTYKDKEGPSPKVEYVWRNIILMSLLHLGALYGITLIPTCKFYTWLWGVFYYFVSALGITAGAHRLWSHRSYKARLPLRLFLIIANTMAFQNDVYEWARDHRAHHKFSETHADPHNSRRGFFFSHVGWLLVRKHPAVKEKGSTLDLSDLEAEKLVMFQRRYYKPGLLMMCFILPTLVPWYFWGETFQNSVFVATFLRYAVVLNATWLVNSAAHLFGYRPYDKNISPRENILVSLGAVGEGFHNYHHSFPYDYSASEYRWHINFTTFFIDCMAALGLAYDRKKVSKAAILARIKRTGDGNYKSG [SCD]”: the thermal stability score in the data set with HeLa Kyoto [1] (setting [5]) is 1.76; in the data set with HeLa Kyoto [1] (cell cycle stage: mitosis), -0.899. In addition, the “solubility in G1/S (log2)” value in the data set on HeLa Kyoto [2] was -0.126. Moreover, in the data set with HeLa Kyoto [3], the “solubility change mitosis (log2)” value was -0.151. The results for the melting temperature in the data set with HeLa Kyoto [4] (cell cycle stage: G1/S) and in the data set with HeLa Kyoto [4] (cell cycle stage: mitosis) were 50.5 °C and 51.2 °C, respectively.
Take DOCK7: the values for the thermal stability score in the data set with HeLa Kyoto [1] (setting [5]) and with HeLa Kyoto [1] (cell cycle stage: mitosis) were 0.562 and 1.42, respectively. Further, the “solubility in G1/S (log2)” value with HeLa Kyoto [2] was -0.219. The “solubility change mitosis (log2)” value in the data set with HeLa Kyoto [3] is -0.188. Also, the melting temperature in the data set on HeLa Kyoto [4] (cell cycle stage: G1/S) worked out at 48.2 °C; in the data set with HeLa Kyoto [4] (cell cycle stage: mitosis) it was 49 °C.
Consider “MSKPELKEDKMLEVHFVGDDDVLNHILDREGGAKLKKERAQLLVNPKKIIKKPEYDLEEDDQEVLKDQNYVEIMGRDVQESLKNGSATGGGNKVYSFQNRKHSEKMAKLASELAKTPQKSVSFSLKNDPEITINVPQSSKGHSASDKVQPKNNDKSEFLSTAPRSLRKRLIVPRSHSDSESEYSASNSEDDEGVAQEHEEDTNAVIFSQKIQAQNRVVSAPVGKETPSKRMKRDKTSDLVEEYFEAHSSSKVLTSDRTLQKLKRAKLDQQTLRNLLSKVSPSFSAELKQLNQQYEKLFHKWMLQLHLGFNIVLYGLGSKRDLLERFRTTMLQDSIHVVINGFFPGISVKSVLNSITEEVLDHMGTFRSILDQLDWIVNKFKEDSSLELFLLIHNLDSQMLRGEKSQQIIGQLSSLHNIYLIASIDHLNAPLMWDHAKQSLFNWLWYETTTYSPYTEETSYENSLLVKQSGSLPLSSLTHVLRSLTPNARGIFRLLIKYQLDNQDNPSYIGLSFQDFYQQCREAFLVNSDLTLRAQLTEFRDHKLIRTKKGTDGVEYLLIPVDNGTLTDFLEKEEEEA [ORC2]”, for which the values for the thermal stability score in the data set with HeLa Kyoto [1] (setting [5]) and in the data set with HeLa Kyoto [1] (cell cycle stage: mitosis) were 1.23 and 1.67, respectively. The “solubility in G1/S (log2)” value in the data set on HeLa Kyoto [2] was found to be 0.117. Moreover, the “solubility change mitosis (log2)” value in the data set on HeLa Kyoto [3] was 0.06. Also, the melting temperature was found to be 48.1 °C in the data set with HeLa Kyoto [4] (cell cycle stage: G1/S) and 49.2 °C with HeLa Kyoto [4] (cell cycle stage: mitosis).
